{"source": "paper PMC4990258", "about": "“Mutations at the Subunit Interface of Yeast Proliferating Cell Nuclear Antigen Reveal a Versatile Regulatory Domain” (PLoS ONE, 2016)", "target": "T1, GST-Rev1 (full-length Rev1) (S. cerevisiae, UniProt P12689 1-985)", "T1 construct": "Rev1, yeast, full-length; Held on the beads by GST during the incubation; Rev1 was cut from GST by PreScission protease only at the elution step; not shown: GST, N-terminal, kept", "T1 sequence (looked up)": "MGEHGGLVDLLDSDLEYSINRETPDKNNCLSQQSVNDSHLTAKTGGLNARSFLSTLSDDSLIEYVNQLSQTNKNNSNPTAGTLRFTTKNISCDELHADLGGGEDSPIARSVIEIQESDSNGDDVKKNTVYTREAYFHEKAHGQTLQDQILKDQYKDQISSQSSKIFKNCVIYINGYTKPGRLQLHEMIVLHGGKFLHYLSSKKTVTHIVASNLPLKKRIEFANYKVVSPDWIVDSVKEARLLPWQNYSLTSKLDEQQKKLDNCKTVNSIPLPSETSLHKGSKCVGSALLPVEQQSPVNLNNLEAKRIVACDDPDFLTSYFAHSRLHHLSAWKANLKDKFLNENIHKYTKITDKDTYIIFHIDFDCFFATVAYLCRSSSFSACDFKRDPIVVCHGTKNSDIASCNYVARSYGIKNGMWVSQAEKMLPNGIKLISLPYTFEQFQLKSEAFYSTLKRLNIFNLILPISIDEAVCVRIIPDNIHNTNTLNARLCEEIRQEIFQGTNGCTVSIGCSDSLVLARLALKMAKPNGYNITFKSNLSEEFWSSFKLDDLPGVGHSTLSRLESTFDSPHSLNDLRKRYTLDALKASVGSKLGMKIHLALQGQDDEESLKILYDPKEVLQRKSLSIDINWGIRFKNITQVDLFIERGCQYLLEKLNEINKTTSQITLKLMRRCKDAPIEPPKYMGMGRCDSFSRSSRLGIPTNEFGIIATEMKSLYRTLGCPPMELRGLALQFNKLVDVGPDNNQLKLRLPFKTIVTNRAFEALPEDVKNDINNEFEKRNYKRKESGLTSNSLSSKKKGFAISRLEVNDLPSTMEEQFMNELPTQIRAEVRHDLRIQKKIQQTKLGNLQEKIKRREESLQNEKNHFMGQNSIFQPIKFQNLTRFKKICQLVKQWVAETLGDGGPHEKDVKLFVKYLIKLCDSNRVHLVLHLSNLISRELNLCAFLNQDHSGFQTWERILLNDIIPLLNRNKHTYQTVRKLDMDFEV", "experiment": "pull-down; GST-Rev1 (5 μg) immobilised on glutathione-Sepharose beads, incubated with purified PCNA (3 μg) overnight on ice; 50 mM Tris/HCl pH 7.5, 100 mM NaCl, 1 mM EDTA, 1 mM DTT, 10% glycerol, 0.01% Nonidet P-40; five washes; eluted by PreScission protease cleavage of Rev1 from GST; SDS-PAGE", "conditions": "both partners purified"}
{"binder": "wild type PCNA (proliferating cell nuclear antigen, Saccharomyces cerevisiae) (natural protein, S. cerevisiae, PCNA (POL30 gene product), Saccharomyces cerevisiae, wild type; the oligomeric state of the purified protein was not measured here; also called wt PCNA; yeast PCNA; source: yeast BJ5464, overexpressed as GST fusion, purified on glutathione-Sepharose 4B, GST removed by PreScission protease; not shown: GST, N-terminal, cleaved) MLEAKFEEASLFKRIIDGFKDCVQLVNFQCKEDGIIAQAVDDSRVLLVSLEIGVEAFQEYRCDHPVTLGMDLTSLSKILRCGNNTDTLTLIADNTPDSIILLFEDTKKDRIAEYSLKLMDIDADFLKIEELQYDSTLSLPSSEFSKIVRDLSQLSDSINIMITKETIKFVADGDIGSGSVIIKPFVDMEHPETSIKLEMDQPVDLTFGAKYLLDIIKGSSLSDRVGIRLSSEAPALFQFDLKSGFLQFFLAPKFNDEE", "values": [{"measurement": "binding result", "value": "binds"}]}
